Test results as given in the supplement of paper PMC9112550, “Optimization of the antimicrobial peptide Bac7 by deep mutational scanning” (BMC Biology, 2022).

system: Escherichia coli TOP10; assay: shrunken log2 fold change of peptide-encoding DNA abundance (4.5 h post-induction vs induction); higher = less antimicrobial activity (less host growth inhibition); conditions: time post-induction: 4.5 h; library: site-saturation at positions 5, 18, 19, 20
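Further: peptides expressed intracellularly from a pBAD plasmid library in pooled LB shake-flask culture, induced with 0.3% L-arabinose, DNA abundance read by NGS, three biological replicates, DESeq2 with apeglm shrinkage.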

First: RRIRDRPPRLPRPRPRPWRVPRP
Second: RRIRKRPPRLPRPRPRPCSFPRP
The “shrunken log2 fold change” value of the first is higher: 0.28 for the first, -0.397 for the second.

First: RRIRDRPPRLPRPRPRPFLYPRP
Second: RRIRIRPPRLPRPRPRPRSPPRP
The “shrunken log2 fold change” value of the first is higher: 1.81 for the first, 0.0527 for the second.

Going from RRIRDRPPRLPRPRPRPKQHPRP to RRIRNRPPRLPRPRPRPPGNPRP, the “shrunken log2 fold change” value rises from 0.0788 to 0.532.

RRIRKRPPRLPRPRPRPMWDPRP and RRIRNRPPRLPRPRPRPQDEPRP are within 0.2 log units of each other in “shrunken log2 fold change” value: -0.0178 for the first, 0.00847 for the second.

First: RRIRNRPPRLPRPRPRPEVPPRP
Second: RRIRHRPPRLPRPRPRPFAGPRP
The “shrunken log2 fold change” value of the first is higher: 0.095 for the first, -0.205 for the second.

First: RRIRRRPPRLPRPRPRPACQPRP
Second: RRIRFRPPRLPRPRPRPYIHPRP
The “shrunken log2 fold change” value of the first is higher: 0.835 for the first, -0.932 for the second.

RRIRARPPRLPRPRPRPMWFPRP and RRIRRRPPRLPRPRPRPNWIPRP are within 0.2 log units of each other in “shrunken log2 fold change” value: 0.0716 for the first, 0.259 for the second.

First: RRIRIRPPRLPRPRPRPNRPPRP
Second: RRIRRRPPRLPRPRPRPFACPRP
The “shrunken log2 fold change” value of the first is lower: -0.212 for the first, 0.152 for the second.

Going from RRIRIRPPRLPRPRPRPATCPRP to RRIRRRPPRLPRPRPRPGGRPRP, the “shrunken log2 fold change” value rises from -0.349 to 0.295.

First: RRIRVRPPRLPRPRPRPCRLPRP
Second: RRIRERPPRLPRPRPRPRFNPRP
The “shrunken log2 fold change” value of the first is higher: -0.0106 for the first, -0.453 for the second.

RRIRHRPPRLPRPRPRPYAQPRP and RRIRLRPPRLPRPRPRPAIMPRP are within 0.2 log units of each other in “shrunken log2 fold change” value: -0.279 for the first, -0.16 for the second.

First: RRIRARPPRLPRPRPRPVKRPRP
Second: RRIRPRPPRLPRPRPRPRFGPRP
The “shrunken log2 fold change” value of the first is lower: 0.138 for the first, 0.348 for the second.

First: RRIRARPPRLPRPRPRPVDQPRP
Second: RRIRWRPPRLPRPRPRPFWNPRP
The “shrunken log2 fold change” value of the first is higher: 0.607 for the first, -0.175 for the second.

RRIRIRPPRLPRPRPRPHLRPRP and RRIRARPPRLPRPRPRPCSGPRP are within 0.2 log units of each other in “shrunken log2 fold change” value: -0.00802 for the first, 0.0771 for the second.

Going from RRIRERPPRLPRPRPRPTHTPRP to RRIRYRPPRLPRPRPRPANRPRP, the “shrunken log2 fold change” value rises from -0.409 to 0.0126.

RRIRMRPPRLPRPRPRPFMWPRP and RRIRHRPPRLPRPRPRPWITPRP are within 0.2 log units of each other in “shrunken log2 fold change” value: -0.128 for the first, -0.118 for the second.

First: RRIRFRPPRLPRPRPRPGEPPRP
Second: RRIRGRPPRLPRPRPRPVRFPRP
The “shrunken log2 fold change” value of the first is lower: 0.118 for the first, 0.685 for the second.

RRIRLRPPRLPRPRPRPSWEPRP and RRIRFRPPRLPRPRPRPEDVPRP are within 0.2 log units of each other in “shrunken log2 fold change” value: 0.0244 for the first, -0.0294 for the second.

RRIRARPPRLPRPRPRPCAHPRP and RRIRQRPPRLPRPRPRPGLMPRP are within 0.2 log units of each other in “shrunken log2 fold change” value: -0.0288 for the first, -0.0533 for the second.

Going from RRIRARPPRLPRPRPRPQLHPRP to RRIRTRPPRLPRPRPRPYLFPRP, the “shrunken log2 fold change” value falls from 0.054 to -0.71.

Compared with RRIRIRPPRLPRPRPRPQHDPRP, RRIRDRPPRLPRPRPRPGVSPRP is higher in “shrunken log2 fold change” value: -0.0884 for the first, 0.158 for the second.

Going from RRIRFRPPRLPRPRPRPLRAPRP to RRIRTRPPRLPRPRPRPDWAPRP, the “shrunken log2 fold change” value falls from 0.821 to 0.327.

Going from RRIRMRPPRLPRPRPRPMQMPRP to RRIRMRPPRLPRPRPRPPICPRP, the “shrunken log2 fold change” value falls from 0.671 to 0.292.

Compared with RRIRLRPPRLPRPRPRPPSDPRP, RRIRERPPRLPRPRPRPCEDPRP is lower in “shrunken log2 fold change” value: 0.432 for the first, 0.0101 for the second.

Going from RRIRDRPPRLPRPRPRPHRNPRP to RRIRARPPRLPRPRPRPVCEPRP, the “shrunken log2 fold change” value rises from -0.0138 to 0.836.

Going from RRIRWRPPRLPRPRPRPESPPRP to RRIRARPPRLPRPRPRPCMAPRP, the “shrunken log2 fold change” value falls from 0.637 to 0.104.

Compared with RRIRIRPPRLPRPRPRPFYMPRP, RRIRFRPPRLPRPRPRPMKRPRP is higher in “shrunken log2 fold change” value: -0.235 for the first, 0.347 for the second.

RRIRVRPPRLPRPRPRPRMLPRP and RRIRFRPPRLPRPRPRPLGTPRP are within 0.2 log units of each other in “shrunken log2 fold change” value: -0.103 for the first, 0.0158 for the second.

Compared with RRIRYRPPRLPRPRPRPNFCPRP, RRIRHRPPRLPRPRPRPDKDPRP is lower in “shrunken log2 fold change” value: -0.00468 for the first, -0.44 for the second.

RRIRMRPPRLPRPRPRPNFRPRP and RRIRERPPRLPRPRPRPMGKPRP are within 0.2 log units of each other in “shrunken log2 fold change” value: 0.0542 for the first, -0.01 for the second.

RRIRSRPPRLPRPRPRPHLDPRP and RRIRYRPPRLPRPRPRPRVAPRP are within 0.2 log units of each other in “shrunken log2 fold change” value: -0.156 for the first, 0.0343 for the second.

RRIRLRPPRLPRPRPRPFQGPRP and RRIRYRPPRLPRPRPRPMRCPRP are within 0.2 log units of each other in “shrunken log2 fold change” value: 0.0498 for the first, -0.000627 for the second.

RRIRGRPPRLPRPRPRPWVHPRP and RRIRGRPPRLPRPRPRPSDFPRP are within 0.2 log units of each other in “shrunken log2 fold change” value: -0.0245 for the first, 0.0231 for the second.

Compared with RRIRSRPPRLPRPRPRPTEQPRP, RRIRMRPPRLPRPRPRPNAGPRP is higher in “shrunken log2 fold change” value: -0.0196 for the first, 0.416 for the second.

RRIRIRPPRLPRPRPRPPPSPRP and RRIRDRPPRLPRPRPRPTAGPRP are within 0.2 log units of each other in “shrunken log2 fold change” value: 0.399 for the first, 0.534 for the second.

RRIRKRPPRLPRPRPRPYYHPRP and RRIRMRPPRLPRPRPRPGYYPRP are within 0.2 log units of each other in “shrunken log2 fold change” value: 0.158 for the first, -0.0156 for the second.

First: RRIRCRPPRLPRPRPRPHKPPRP
Second: RRIRSRPPRLPRPRPRPYDTPRP
The “shrunken log2 fold change” value of the first is higher: 0.0762 for the first, -0.532 for the second.

Compared with RRIRWRPPRLPRPRPRPKGTPRP, RRIRGRPPRLPRPRPRPHLWPRP is higher in “shrunken log2 fold change” value: -0.0654 for the first, 0.942 for the second.

First: RRIRSRPPRLPRPRPRPTIKPRP
Second: RRIRTRPPRLPRPRPRPQQWPRP
The “shrunken log2 fold change” value of the first is lower: -0.29 for the first, 0.46 for the second.

RRIRNRPPRLPRPRPRPHDRPRP and RRIRRRPPRLPRPRPRPWHLPRP are within 0.2 log units of each other in “shrunken log2 fold change” value: -0.146 for the first, -0.138 for the second.

Going from RRIRARPPRLPRPRPRPMNGPRP to RRIRTRPPRLPRPRPRPGHMPRP, the “shrunken log2 fold change” value falls from -0.0023 to -0.233.

RRIRFRPPRLPRPRPRPDWGPRP and RRIRNRPPRLPRPRPRPMQMPRP are within 0.2 log units of each other in “shrunken log2 fold change” value: 0.00855 for the first, 0.0963 for the second.

First: RRIRNRPPRLPRPRPRPYVCPRP
Second: RRIRWRPPRLPRPRPRPLWHPRP
The “shrunken log2 fold change” value of the first is lower: -0.363 for the first, -0.0484 for the second.

Going from RRIRRRPPRLPRPRPRPGGMPRP to RRIRRRPPRLPRPRPRPEGCPRP, the “shrunken log2 fold change” value rises from 0.235 to 0.863.

RRIRCRPPRLPRPRPRPWSIPRP and RRIRARPPRLPRPRPRPRNYPRP are within 0.2 log units of each other in “shrunken log2 fold change” value: 0.0457 for the first, 0.0668 for the second.

RRIRERPPRLPRPRPRPDSNPRP and RRIRARPPRLPRPRPRPKLRPRP are within 0.2 log units of each other in “shrunken log2 fold change” value: -0.00994 for the first, 0.178 for the second.

Going from RRIRGRPPRLPRPRPRPDKMPRP to RRIRKRPPRLPRPRPRPCRHPRP, the “shrunken log2 fold change” value falls from 0.261 to -0.00769.

RRIRERPPRLPRPRPRPLARPRP and RRIRMRPPRLPRPRPRPQHEPRP are within 0.2 log units of each other in “shrunken log2 fold change” value: 0.179 for the first, 0.212 for the second.

RRIRQRPPRLPRPRPRPNEKPRP and RRIRIRPPRLPRPRPRPSKGPRP are within 0.2 log units of each other in “shrunken log2 fold change” value: -0.0522 for the first, -0.142 for the second.

RRIRQRPPRLPRPRPRPMMPPRP and RRIRLRPPRLPRPRPRPMLDPRP are within 0.2 log units of each other in “shrunken log2 fold change” value: 0.0665 for the first, 0.014 for the second.

First: RRIRWRPPRLPRPRPRPYTGPRP
Second: RRIRTRPPRLPRPRPRPYMTPRP
The “shrunken log2 fold change” value of the first is higher: -0.135 for the first, -0.375 for the second.

Going from RRIRIRPPRLPRPRPRPGDKPRP to RRIRWRPPRLPRPRPRPNRDPRP, the “shrunken log2 fold change” value rises from -0.218 to -0.00925.

Compared with RRIRWRPPRLPRPRPRPNMIPRP, RRIRGRPPRLPRPRPRPASDPRP is higher in “shrunken log2 fold change” value: -0.114 for the first, 0.987 for the second.

RRIRCRPPRLPRPRPRPWWFPRP and RRIRQRPPRLPRPRPRPPFRPRP are within 0.2 log units of each other in “shrunken log2 fold change” value: 0.0459 for the first, 0.14 for the second.

For RRIRCRPPRLPRPRPRPDSDPRP, the “shrunken log2 fold change” value was -0.0612.
